Source: US20220089761A1

Molecular target: CD20 receptor on WIL2-S cell line (human) (UniProt P11836)
Assay: flow cytometry on WIL2-S cells, detection with anti-human Fc-PE

UniProt P11836, sequence (P11836 whole entry): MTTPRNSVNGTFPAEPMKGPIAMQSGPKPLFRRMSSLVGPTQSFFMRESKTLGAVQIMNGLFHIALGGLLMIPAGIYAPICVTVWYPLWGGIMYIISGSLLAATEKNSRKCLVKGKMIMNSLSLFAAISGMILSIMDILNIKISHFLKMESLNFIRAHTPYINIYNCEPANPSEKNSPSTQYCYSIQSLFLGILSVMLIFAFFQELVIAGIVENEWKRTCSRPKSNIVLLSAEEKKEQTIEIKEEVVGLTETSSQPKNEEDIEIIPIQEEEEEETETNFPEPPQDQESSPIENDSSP

In the case of MabThera (Rituximab) (antibody), the EC50 (read off the curve) is reported as 1 µg/mL.
